We go through 10 molecules from patent US20210355225A1 (OSE IMMUNOTHERAPEUTICS, published 2021).

B1: HELD (antibody, human IgG4 S228P, kappa, V domains shown)
VH: QIQLVQSGSELKKPGASVKVSCKASGYTFTHYAMNWVRQAPGQGLEWMGWINTNTGEPTYAQGFTGRFVFSLDTSVSTAYLQISSLKAEDTAVYYCAREREPGMDTWGQGTLVTVSS
VL: DVVMTQSPLSLPVTLGQPASISCRSSQSLVHANTNTYLEWYQQRPGQSPRLLIYKVSNRFSGVPDRFSGSGSGTDFTLKISRVEAEDVGVYYCFQGTHVPNTFGQGTKLEIKR
notes: also called humanized anti-PD1 variant HE heavy chain + LD light chain; HELD(V94)
B2: HELC (antibody, human IgG4 S228P, kappa, V domains shown)
VH: B1 VH
VL: B1 VL with T34G
notes: also called humanized anti-PD1 variant HE heavy chain + LC light chain
B3: HCLD (antibody, human IgG4 S228P, kappa, V domains shown)
VH: B1 VH with T106S
VL: B1 VL
notes: also called humanized anti-PD1 variant HC heavy chain + LD light chain
B4: HHLD (antibody, human IgG4 S228P, kappa, V domains shown)
VH: B1 VH with T106H
VL: B1 VL
notes: also called humanized anti-PD1 variant HH heavy chain + LD light chain
B5: HGLD (antibody, human IgG4 S228P, kappa, V domains shown)
VH: B1 VH with D105E, T106S
VL: B1 VL
notes: also called humanized anti-PD1 variant HG heavy chain + LD light chain
B6: HLLD (antibody, human IgG4 S228P, kappa, V domains shown)
VH: B1 VH with T106E
VL: B1 VL
notes: also called humanized anti-PD1 variant HL heavy chain + LD light chain
B7: HILD (antibody, human IgG4 S228P, kappa, V domains shown)
VH: B1 VH with T106A
VL: B1 VL
notes: also called humanized anti-PD1 variant HI heavy chain + LD light chain
B8: HJLD (antibody, human IgG4 S228P, kappa, V domains shown)
VH: B1 VH with T106Y
VL: B1 VL
notes: also called humanized anti-PD1 variant HJ heavy chain + LD light chain
B9: HKLD (antibody, human IgG4 S228P, kappa, V domains shown)
VH: B1 VH with T106N
VL: B1 VL
notes: also called humanized anti-PD1 variant HK heavy chain + LD light chain; humanized anti PD-1 (HKLD variant)
B10: HCLC (antibody, human IgG4 S228P, kappa, V domains shown)
VH: B1 VH with T106S
VL: B1 VL with T34G
notes: also called humanized anti-PD1 variant HC heavy chain + LC light chain

Residue numbers refer to the chain shown, from its start.

For one assay, the target named is T1, human PD-1 expressed on the cell surface (human, UniProt Q15116 25-288).
T1 construct: whole, on cells; PD-1 on CD3/CD28 stimulated human T cells (flow cytometry), on Promega Jurkat effector cells and on human M1 macrophages (functional assays); also called PD1+ positive CD3+ T cell population; PD-1+ T cells
T1 sequence (Q15116 25-288): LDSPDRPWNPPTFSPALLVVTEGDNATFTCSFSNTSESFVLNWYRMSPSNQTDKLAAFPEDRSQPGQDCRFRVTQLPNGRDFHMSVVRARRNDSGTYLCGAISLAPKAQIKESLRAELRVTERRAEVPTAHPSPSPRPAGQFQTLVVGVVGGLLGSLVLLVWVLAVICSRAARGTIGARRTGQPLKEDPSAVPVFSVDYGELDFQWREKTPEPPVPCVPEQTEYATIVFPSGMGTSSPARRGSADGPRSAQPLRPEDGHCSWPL
The assay can be described thus: Flow cytometry on CD3/CD28 stimulated human PBMCs, PE-labelled mouse anti-human Fc mAb, MFI in the PD1+ CD3+ T cell population. On the procedure:
(§1) Detection was performed with a donkey anti-human antibody coupled to peroxidase and revelation was performed by colorimetry at 450 nm using TMB substrate. […] B: Assessment of antibody binding by cytofluorometry on CD3/CD28 stimulated human PBMCs. […] Data are represented by Mean Fluorescence Intensity (MFI) staining in PD1+ positive CD3+ T cell population. C: Assessment of antibody binding by cytofluorometry on CD3/CD28 stimulated T cells. […] Data are represented by Mean Fluorescence Intensity (MFI) staining in PD1+ positive CD3+ T cell population
As for B1, the EC50 (read off the curve) (commonly the concentration giving half of the maximal effect) was approximately 0.3 µg/mL.
Turning to B2, the “EC50 (read off the curve)” value was approximately 0.3 µg/mL.

In another assay the target is T2, Recombinant hPD1-His (Sino Biologicals, reference […]-H08H) (human, UniProt Q15116 25-167).
T2 construct: Bought reagent; also called human PD1 recombinant protein; PD-1 recombinant protein; not shown: histidine tail
The experiment in a line: Blitz (BLI), hPD1-His on Ni-NTA biosensor, antibody 20 µg/mL in solution (avidity). On the procedure: The binding affinity/avidity was measured using Blitz method (Forté Bio; USA; reference C22-2 No 61010-1). […] Then, anti-PD1 antibodies were associated with 20 μg/mL for 120 seconds. The dissociation of anti-PD1 antibody was made in kinetics buffer for 120 seconds. Analysis data was made with the Blitz pro 1.2 software, which calculated association constant (ka) and dissociation constant (kd) and determined the affinity constant KD […].
With B3, the Kd worked out at 1.34 nM; the koff (usually a measure of how fast the partners let go of each other) is 0.000429 s⁻¹; the kon (in general, the second-order rate constant of association) was 319000 M⁻¹ s⁻¹.
For B4 the same measures were 0.84 nM, 0.000343 s⁻¹ and 405000 M⁻¹ s⁻¹.
In the case of B5, the Kd was 1.28 nM, the off-rate constant (koff) came to 0.000352 s⁻¹ and the kon worked out at 274000 M⁻¹ s⁻¹.
For B6 the same measures were 1.25 nM, 0.000554 s⁻¹ and 441000 M⁻¹ s⁻¹.
On to B1, for which the Kd worked out at 1.14 nM, the off-rate constant (koff) worked out at 0.000507 s⁻¹ and the kon is 443000 M⁻¹ s⁻¹.
In the case of B7, the Kd worked out at 0.93 nM, the koff turned out to be 0.000427 s⁻¹ and the kon stood at 458000 M⁻¹ s⁻¹.
With B8, the Kd was 1.05 nM, the koff amounted to 0.000432 s⁻¹ and the kon was determined as 410000 M⁻¹ s⁻¹.
For B9 the same measures were 0.75 nM, 0.000262 s⁻¹ and 351000 M⁻¹ s⁻¹.

The target of a further assay is T2, Recombinant hPD1-His (Sino Biologicals, …). The assay can be described thus: Biacore competition with PDL1 for PD1, relative response in % of no Ab. A general note: Surface plasmon resonance follows binding to a sensor surface in real time, without labels.
Take B10: the binding result is recorded as “binds”.

A further assay has the same target. The assay can be described thus: ELISA, immobilized recombinant hPD1, purified antibody from HEK cells; given as ED50. Here is the method: as §1
Consider B3, for which the EC50 (as a rule, the concentration at which the effect is half-maximal) amounted to 0.0127 µg/mL.
Take B4: the EC50 amounted to 0.0164 µg/mL.
The same measure, in the same setting: in the case of B5 it was 0.0147 µg/mL; in that of B6, 0.0166 µg/mL.
Same read-out and setting: in the case of B1 it was 0.0192 µg/mL; in that of B7, 0.0115 µg/mL; in that of B8, 0.0134 µg/mL.
For B9, the EC50 is 0.0114 µg/mL.

For a further assay, the target named is T1, human PD-1 expressed on the cell surface. The assay can be described thus: cell-based or functional assay.
Turning to B3, the “ED50 of NFAT luciferase luminescence, Promega PD-1/PD-L1 bioassay” value (“ED50 of NFAT luciferase luminescence” below) came to 0.41 µg/mL.
Still for that read-out and setting: in the case of B4 it was 0.54 µg/mL; in that of B5, 1.16 µg/mL; in that of B6, 0.89 µg/mL.
As for B1, the “ED50 of NFAT luciferase luminescence” value stood at 0.46 µg/mL.
Turning to B7, the “ED50 of NFAT luciferase luminescence” value was determined as 0.4 µg/mL.
In the case of B8, the “ED50 of NFAT luciferase luminescence” value came out at 0.9 µg/mL.
The same measure, in the same setting: the result for B9 reads 0.69 µg/mL.

Another assay has as its target T2, Recombinant hPD1-His (Sino Biologicals, …). The assay can be described thus: ELISA on immobilised recombinant hPD1, DO 450 nm.
With B1, the “EC50 (read off the curve)” value is approximately 0.009 µg/mL.

In a further assay the target is T3, biotinylated Human PD1 (AcroBiosystems, reference EP-101) (human, UniProt Q15116 25-167, biotinylated).
T3 construct: also called Biotin-PD-1Fc; not shown: Fc part implied by the name 'Biotin-PD-1Fc'
T3 sequence (Q15116 25-167): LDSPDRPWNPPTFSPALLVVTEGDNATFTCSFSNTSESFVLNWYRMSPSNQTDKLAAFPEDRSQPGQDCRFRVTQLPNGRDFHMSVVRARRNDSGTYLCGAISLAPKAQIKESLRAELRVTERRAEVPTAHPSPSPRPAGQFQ
The experiment in a line: competition ELISA, immobilized hPDL1 as competitor, biotinylated PD1 0.66 µg/ml mixed with antibody. (An ELISA detects its analyte on a solid surface through an enzyme-linked reagent.)
Regarding B3, the IC50 (in general, the concentration needed to halve the response being measured) was determined as 0.196 µg/mL.
The molecule B4 showed an IC50 of 0.201 µg/mL.
Still for that read-out and setting: the result for B5 reads 0.178 µg/mL.
On the same count and under the same terms, the result for B6 reads 0.156 µg/mL; that for B1, 0.196 µg/mL; that for B7, 0.175 µg/mL.
With B8, the IC50 was found to be 0.194 µg/mL.
B9 registered an IC50 of 0.205 µg/mL.

A further assay addresses T2, Recombinant hPD1-His (Sino Biologicals, …). The assay can be described thus: ELISA on immobilised recombinant hPD1, DO 450 nm. The source holds these as a separate data set.
As for B1, the “EC50 (read off the curve)” value is approximately 0.01 µg/mL.

Another assay has the same target. The assay can be described thus: Biacore SPR, antibody captured on anti-human Fc, hPD1-His as analyte. On the procedure:
The affinity measurement was performed by Biacore in PP21 platform (Inserm U1194, Université de Montpellier). Anti-human Fc antibody (GEHealthcare) was immobilized at 25 μg/ml in acetate buffer pH5.
B9: the Kd came to 4.1 nM, the koff was approximately 0.00133 s⁻¹ and the kon was 324000 M⁻¹ s⁻¹.

A further assay has as its target T1, human PD-1 expressed on the cell surface. The assay can be described thus: flow cytometry on CD3/CD28 stimulated human T cells (PD1+ CD3+); given as ED50. Here is the method: as §1
A general note: Flow cytometry measures light scatter and fluorescence of single cells or particles in a stream.
As to B3, a half-maximal effect (EC50) was put at 0.278 nM.
The same measure, in the same setting: the result for B4 reads 0.133 nM; that for B5, 1.54 nM; that for B6, 0.223 nM.
The same measure, in the same setting: in the case of B1 it was 0.402 nM.
Still for that read-out and setting: in the case of B7 it was 0.118 nM; in that of B8, 0.241 nM; in that of B9, 0.187 nM.

For the next assay, the target named is chimeric PD-1 receptor fused to Beta-gal fragment (ED) on Jurkat T cells (DiscoverX PathHunter Jurkat PD-1 … (UniProt Q15116 25-288)). The experiment in a line: cell-based or functional assay.
chimeric PD-1 receptor fused to Beta-gal fragment (ED) on Jurkat T cells (DiscoverX PathHunter Jurkat PD-1 …, sequence (Q15116 25-288, change not shown): as the sequence (Q15116 25-288) above
With B3, the “IC50 of PD-1/pSHP-1 signaling, DiscoverX PathHunter Jurkat PD-1 (SHP1) assay, chemiluminescence” value came out at 12.7 ng/mL.
Same read-out and setting: the result for B4 reads 16.9 ng/mL; that for B5, 14.8 ng/mL.
On the same count and under the same terms, the result for B6 reads 16.6 ng/mL; that for B1, 19.2 ng/mL.
Same read-out and setting: the result for B7 reads 11.6 ng/mL; that for B8, 13.4 ng/mL.
For B9, the “IC50 of PD-1/pSHP-1 signaling, DiscoverX PathHunter Jurkat PD-1 (SHP1) assay, chemiluminescence” value was 11.4 ng/mL.
